{
  "source": "patent US20220195054A1",
  "about": "(BERGEN TEKNOLOGIOVERF RING, published 2022)",
  "binders": {"B1": {"name": "chimeric monoclonal antibody 10G5 (mouse variable/human constant IgG1) (antibody, V domains shown)", "VH": "QVQLQQSGAELVRPGASVKLSCKASGYSFTDFYINWVRQRPGQGLEWIARIFPGGDNTYYNEKFKGKATLTAEESSSTAYIQLSSLTSEDSAVYFCARRGLYYAMDYWGQGISVTVSS", "VL": "DVLMTQTPLSLPVSLGDQASISCRSSQSLVHSNGIPYLHWYLQKPGQSPKLLIYRVSNRFSGVPDRFSGSGSGTDFTLKISRVEAEDLGVYFCSQGTHVPPTFGGGTKLEIK", "notes": "also called c10G5; C10G5"}},
  "key": {"[1]": {"molecular_target": "T1, human Axl receptor on cells (MDA-MB-231, HeLa, LX2, Axl-positive cells) (human, UniProt P30530 26-894)", "assay": "cell-based or functional assay"}, "[2]": {"molecular_target": "T2, recombinant human Axl-Fc chimera (rhAxl-Fc; R&D Systems, Cat. no. 154-AL) (human, UniProt P30530 26-451)", "T2 construct": "Bought construct; also called rhAxi-Fc; Hu-Axl-Fc; Fc part of the bought chimera not given", "assay": "SPR (Biacore 3000, 25 C), rhAxl-Fc immobilised; ln2/koff"}, "[3]": {"molecular_target": "T2, recombinant human Axl-Fc chimera …", "assay": "SPR two-injection competition on immobilised Axl-Fc; first injection"}, "[4]": {"molecular_target": "T2, recombinant human Axl-Fc chimera …", "assay": "SPR (Biacore 3000, 25 C), rhAxl-Fc immobilised (190 RU), antibody as analyte, koff/kon", "description": "(§1) The precise kinetic analysis was performed using BIA evaluation software and curve fitting according to 1:1 Langmuir binding model."}, "[5]": {"molecular_target": "T2, recombinant human Axl-Fc chimera …", "assay": "SPR (Biacore 3000, 25 C), rhAxl-Fc immobilised (190 RU), antibody as analyte, 1:1 Langmuir", "description": "as §1"}, "[6]": {"molecular_target": "T1, human Axl receptor on cells …", "assay": "flow cytometry on MDA-MB-231 cells, APC-conjugated anti-human IgG F(ab')2 detection"}, "[7]": {"molecular_target": "T1, human Axl receptor on cells …", "assay": "flow cytometry on MDA-MB-231 cells, APC-conjugated anti-human IgG F(ab')2 detection", "remark": "listed apart in the source", "description": "(§2) The cells were collected by centrifugation at 200 g for 5 min. The antibody was diluted for total concentration in PBS containing 0.2% bovine serum albumin (BSA). Cell staining was performed using 200 μL of cell suspension comprising 200 000 cells for 30 min at room temperature. […] After two washing steps with PBS/0.2% BSA, the cells were resuspended in 200 μL PBS and kept on ice before analysis on Fortessa flow cytometer (BD Biosciences)."}, "[8]": {"molecular_target": "T1, human Axl receptor on cells …", "assay": "flow cytometry titration on MDA-MB-231 cells, Kd of the fitted curve, the axis of the fitted curves is Conc. (nM) [table under the graph]", "description": "as §2"}},
  "note": "Like-named read-outs stand apart in the source and are kept apart here.",
  "data": [
    {"binder": "B1", "values": [
      {"measurement": "EC50 (pM), killing of MDA-MB-231 cells by antibody coupled to Saporin (FabFc-ZAP), XTT/PMS viability after 72 hrs", "setting": "[1]", "value": 5.71, "unit": "pM"},
      {"measurement": "Half-life (t1/2)", "setting": "[2]", "value": 68.4, "unit": "min"},
      {"measurement": "1st Response", "setting": "[3]", "value": "~170"},
      {"measurement": "Kd", "setting": "[4]", "value": 0.103, "unit": "nM"},
      {"measurement": "koff", "setting": "[5]", "value": 0.000169, "unit": "s⁻¹"},
      {"measurement": "kon", "setting": "[5]", "value": "1.64e+06", "unit": "M⁻¹ s⁻¹"},
      {"measurement": "EC50 (read off the curve)", "setting": "[6]", "value": "~0.2", "unit": "nM"},
      {"measurement": "EC50 (read off the curve)", "setting": "[7]", "value": "~0.1", "unit": "nM"},
      {"measurement": "Kd", "setting": "[8]", "value": 0.0922, "unit": "nM"}
    ]}
  ]
}
